Positions count from the first letter of the chain named. Names and notes keep the numbering of the source.
Experiments:
[1] = molecular target: T1, StrepHA-SARAF_CytD-SGFP2 F228S (human, UniProt Q96BY9 195-339, F228S); assay: co-IP; co-IP/HiBiT assay: SGFP2-fused proteins immunoprecipitated with anti-GFP pAb from HEK293 or HEK293 ALG-2KO lysates (with or without co-expressed FLAG-ALG-2); HKM, 1% Nonidet P-40, 10 mM NEM, 10 μM CaCl2; co-precipitated HiBiTHA-SARAF read by lytic HiBiT assay with LgBiT, normalised by StrepTactin-AP; conditions: partners not purified
T1 construct: SARAF CytD, human, 195-339 a.a., F228S; also called F228S mutant; source: HEK293 or HEK293 ALG-2KO, transfected, in lysate; not shown: Twin-Strep, N-terminal, kept; 3xHA, N-terminal, kept; SGFP2, C-terminal, kept
T1 sequence (looked up): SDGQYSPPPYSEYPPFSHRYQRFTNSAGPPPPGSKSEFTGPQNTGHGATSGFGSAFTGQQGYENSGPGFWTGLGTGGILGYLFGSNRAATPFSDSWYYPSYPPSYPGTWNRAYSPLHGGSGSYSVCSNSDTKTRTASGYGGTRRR

[2] = molecular target: T2, StrepHA-SARAF_CytD-SGFP2 (WT) (human, UniProt Q96BY9 195-339); assay: as above; conditions: partners not purified
T2 construct: SARAF cytosolic domain (CytD), human, 195-339 a.a; source: HEK293 or HEK293 ALG-2KO, transfected, in lysate; not shown: Twin-Strep, N-terminal, kept; 3xHA, N-terminal, kept; SGFP2, C-terminal, kept
T2 sequence (looked up): T1 sequence (looked up) with S34F

[3] = molecular target: T3, SGFP2-fused SARAF partial fragment (SARAF-p) (human, UniProt Q96BY9 195-339); assay: pull-down; SGFP2-fused proteins held on protein G magnetic beads via anti-GFP pAb; incubated with Nluc-ALG-2 (300 ng/mL) in buffer HKM, 0.2% Nonidet P-40, 0.1% gelatin, 100 μM CaCl2, 2 h, 4 °C; bound luciferase activity relative to Sec31A-p (100%); conditions: one partner purified
T3 construct: source: HEK293 ALG-2KD, transfected, immunoprecipitated with anti-GFP pAb from cleared lysate
T3 sequence (looked up): T1 sequence (looked up) with S34F

B1: full-length HiBiTHA-SARAF F228S (natural protein, human, UniProt Q96BY9 31-339, looked up)
chain: WNDPDRMLLRDVKALTLHYDRYTTSRRLDPIPQLKCVGGTAGCDSYTPKVIQCQNKGWDGYDVQWECKTDLDIAYKFGKTVVSCEGYESSEDQYVLRGSCGLEYNLDYTELGLQKLKESGKQHGFASFSDYYYKWSSADSCNMSGLITIVVLLGIAFVVYKLFLSDGQYSPPPYSEYPPFSHRYQRFTNSAGPPPPGSKSEFTGPQNTGHGATSGFGSAFTGQQGYENSGPGFWTGLGTGGILGYLFGSNRAATPFSDSWYYPSYPPSYPGTWNRAYSPLHGGSGSYSVCSNSDTKTRTASGYGGTRRR
notes: signal peptide in the construct; SARAF, human, full length, HiBiTHA inserted after the signal peptide; F228S; source: HEK293, transfected, in lysate; not shown: HiBiT, internal (after residue 30), kept
In the case of B1, the “relative interaction activity (WT expressed as 100%)” value [1] is reported as ~15 % of WT.

B2: full-length HiBiTHA-SARAF (WT) (natural protein, human, UniProt Q96BY9 31-339, looked up)
chain: B1 chain with S198F
notes: signal peptide in the construct; SARAF, human, full length; HiBiT and 3xHA (HiBiTHA) inserted between the signal peptide and the N-terminus of mature SARAF (31-339 a.a.); construction is in the Supplementary Information; source: HEK293 or HEK293 ALG-2KO, transfected, in lysate; not shown: HiBiT, internal (after residue 30), kept
B2 was tested, and the “fold enhancement, Ca2+ over 5 mM EGTA, HEK293 ALG-2KO cells” value [2] was 1.3 fold and the “fold enhancement, Ca2+ over 5 mM EGTA, parental HEK293 cells” value [2] was 3.7 fold.

B3: nanoluciferase (NanoLuc, Nluc)-fused ALG-2 (natural protein, UniProt O75340 1-191, looked up)
chain: MAAYSYRPGPGAGPGPAAGAALPDQSFLWNVFQRVDKDRSGVISDTELQQALSNGTWTPFNPVTVRSIISMFDRENKAGVNFSEFTGVWKYITDWQNVFRTYDRDNSGMIDKNELKQALSGFGYRLSDQFHDILIRKFDRQGRGQIAFDDFIQGCIVLQRLTDIFRRYDTDQDGWIQVSYEQYLSMVFSIV
notes: synthetic gene for bacterial expression in pET24d; The whole Nluc-ALG-2 fusion is deposited as LC381846; also called Nluc-ALG-2; NlucALG-2
B3 was tested, and the “binding activity relative to Sec31A-p (100%)” value [3] was 71.5%.

Source: paper PMC7504102, “The Penta-EF-Hand ALG-2 Protein Interacts with the Cytosolic Domain of the SOCE Regulator SARAF and Interferes with Ubiquitination” (International Journal of Molecular Sciences, 2020)
